According to the supplement of paper PMC11246515:
± gives the standard deviation of the averaged measurements.

Assay: total protein half-life in vivo (active degradation + dilution); higher = more stable protein
[1] = wild type E. coli NCM3722, growth: C-lim chemostat, doubling time 6 h
[2] = wild type E. coli NCM3722, growth: C-lim chemostat, doubling time 12 h
[3] = E. coli NCM3722 delta-clpP delta-lon delta-hslV, growth: N-lim chemostat, doubling time 6 h
[4] = E. coli NCM3722 delta-clpP, growth: N-lim chemostat, doubling time 6 h
[5] = E. coli NCM3722 delta-lon, growth: N-lim chemostat, doubling time 6 h
[6] = E. coli NCM3722 delta-smpB, growth: N-lim chemostat, doubling time 6 h
[7] = wild type E. coli NCM3722, growth: C-lim chemostat, doubling time 3 h
[8] = wild type E. coli NCM3722, growth: N-lim chemostat, doubling time 6 h
[9] = wild type E. coli NCM3722, growth: N-lim chemostat, doubling time 12 h
[10] = wild type E. coli NCM3722, growth: P-lim chemostat, doubling time 6 h
[11] = wild type E. coli NCM3722, growth: P-lim chemostat, doubling time 12 h
[12] = E. coli NCM3722 delta-hslV, growth: N-lim chemostat, doubling time 6 h

Sequence	total protein half-life in vivo [1]	total protein half-life in vivo [2]	total protein half-life in vivo [3]	total protein half-life in vivo [4]	total protein half-life in vivo [5]	total protein half-life in vivo [6]	total protein half-life in vivo [7]	total protein half-life in vivo [8]	total protein half-life in vivo [9]	total protein half-life in vivo [10]	total protein half-life in vivo [11]	total protein half-life in vivo [12]
MGNTSIQTQSYRAVDKDAGQSRSYIIPFALLCSLFFLWAVANNLNDILLPQFQQAFTLTNFQAGLIQSAFYFGYFIIPIPAGILMKKLSYKAGIITGLFLYALGAALFWPAAEIMNYTLFLVGLFIIAAGLGCLETAANPFVTVLGPESSGHFRLNLAQTFNSFGAIIAVVFGQSLILSNVPHQSQDVLDKMSPEQLSAYKHSLVLSVQTPYMIIVAIVLLVALLIMLTKFPALQSDNHSDAKQGSFSASLSRLARIRHWRWAVLAQFCYVGAQTACWSYLIRYAVEEIPGMTAGFAANYLTGTMVCFFIGRFTGTWLISRFAPHKVLAAYALIAMALCLISAFAGGHVGLIALTLCSAFMSIQYPTIFSLGIKNLGQDTKYGSSFIVMTIIGGGIVTPVMGFVSDAAGNIPTAELIPALCFAVIFIFARFRSQTATN	3.02 h	4.27 ± 0.49 h	–	–	–	–	–	–	–	–	–	–
MGQLIDGVWHDTWYDTKSTGGKFQRSASAFRNWLTADGAPGPTGTGGFIAEKDRYHLYVSLACPWAHRTLIMRKLKGLEPFISVSVVNPLMLENGWTFDDSFPGATGDTLYQNEFLYQLYLHADPHYSGRVTVPVLWDKKNHTIVSNESAEIIRMFNTAFDALGAKAGDYYPPALQTKIDELNGWIYDTVNNGVYKAGFATSQEAYDEAVAKVFESLARLEQILGQHRYLTGNQLTEADIRLWTTLVRFDPVYVTHFKCDKHRISDYLNLYGFLRDIYQMPGIAETVNFDHIRNHYFRSHKTINPTGIISIGPWQDLDEPHGRDVRFG	5.64 ± 0.061 h	–	6.05 ± 0.31 h	4.89 ± 0.16 h	5.03 ± 0.45 h	5.01 ± 0.34 h	3.53 ± 0.54 h	5.04 ± 0.15 h	8.28 ± 0.38 h	5.99 ± 0.58 h	12.3 ± 0.26 h	–
MGQSSQPHELGGGLKSRHVTMLSIAGVIGASLFVGSSVAIAEAGPAVLLAYLFAGLLVVMIMRMLAEMAVATPDTGSFSTYADKAIGRWAGYTIGWLYWWFWVLVIPLEANIAAMILHSWVPGIPIWLFSLVITLALTGSNLLSVKNYGEFEFWLALCKVIAILAFIFLGAVAISGFYPYAEVSGISRLWDSGGFMPNGFGAVLSAMLITMFSFMGAEIVTIAAAESDTPEKHIVRATNSVIWRISIFYLCSIFVVVALIPWNMPGLKAVGSYRSVLELLNIPHAKLIMDCVILLSVTSCLNSALYTASRMLYSLSRRGDAPAVMGKINRSKTPYVAVLLSTGAAFLTVVVNYYAPAKVFKFLIDSSGAIALLVYLVIAVSQLRMRKILRAEGSEIRLRMWLYPWLTWLVIGFITFVLVVMLFRPAQQLEVISTGLLAIGIICTVPIMARWKKLVLWQKTPVHNTR	–	–	–	–	–	1.1 h	–	–	–	–	–	0.975 h
MGSGWHEWPLMIFTVFGQCVAGGFIVLALALLKGDLRAEAQQRVIACMFGLWVLMGIGFIASMLHLGSPMRAFNSLNRVGASALSNEIASGSIFFAVGGIGWLLAMLKKLSPALRTLWLIVTMVLGVIFVWMMVRVYNSIDTVPTWYSIWTPMGFFLTMFMGGPLLGYLLLSLAGVDGWAMRLLPAISVLALVVSGVVSVMQGAELATIHSSVQQAAALVPDYGALMSWRIVLLAVALCLWIAPQLKGYQPAVPLLSVSFILLLAGELIGRGVFYGLHMTVGMAVAS	5.22 h	–	–	–	–	–	–	–	–	–	10.9 h	–
MGSINLRIDDELKARSYAALEKMGVTPSEALRLMLEYIADNERLPFKQTLLSDEDAELVEIVKERLRNPKPVRVTLDEL [P0C079]	1.45 h	–	3.41 ± 0.82 h	1.33 h	–	–	–	–	–	–	2.75 h	–
MGTTTMGVKLDDATRERIKSAATRIDRTPHWLIKQAIFSYLEQLENSDTLPELPALLSGAANESDEAPTPAEEPHQPFLDFAEQILPQSVSRAAITAAYRRPETEAVSMLLEQARLPQPVAEQAHKLAYQLADKLRNQKNASGRAGMVQGLLQEFSLSSQEGVALMCLAEALLRIPDKATRDALIRDKISNGNWQSHIGRSPSLFVNAATWGLLFTGKLVSTHNEASLSRSLNRIIGKSGEPLIRKGVDMAMRLMGEQFVTGETIAEALANARKLEEKGFRYSYDMLGEAALTAADAQAYMVSYQQAIHAIGKASNGRGIYEGPGISIKLSALHPRYSRAQYDRVMEELYPRLKSLTLLARQYDIGINIDAEESDRLEISLDLLEKLCFEPELAGWNGIGFVIQAYQKRCPLVIDYLIDLATRSRRRLMIRLVKGAYWDSEIKRAQMDGLEGYPVYTRKVYTDVSYLACAKKLLAVPNLIYPQFATHNAHTLAAIYQLAGQNYYPGQYEFQCLHGMGEPLYEQVTGKVADGKLNRPCRIYAPVGTHETLLAYLVRRLLENGANTSFVNRIADTSLPLDELVADPVTAVEKLAQQEGQTGLPHPKIPLPRDLYGHGRDNSAGLDLANEHRLASLSSALLNSALQKWQALPMLEQPVAAGEMSPVINPAEPKDIVGYVREATPREVEQALESAVNNAPIWFATPPAERAAILHRAAVLMESQMQQLIGILVREAGKTFSNAIAEVREAVDFLHYYAGQVRDDFANETHRPLGPVVCISPWNFPLAIFTGQIAAALAAGNSVLAKPAEQTPLIAAQGIAILLEAGVPPGVVQLLPGRGETVGAQLTGDDRVRGVMFTGSTEVATLLQRNIASRLDAQGRPIPLIAETGGMNAMIVDSSALTEQVVVDVLASAFDSAGQRCSALRVLCLQDEIADHTLKMLRGAMAECRMGNPGRLTTDIGPVIDSEAKANIERHIQTMRSKGRPVFQAVRENSEDAREWQSGTFVAPTLIELDDFAELQKEVFGPVLHVVRYNRNQLPELIEQINASGYGLTLGVHTRIDETIAQVTGSAHVGNLYVNRNMVGAVVGVQPFGGEGLSGTGPKAGGPLYLYRLLANRPESALAVTLARQDAKYPVDAQLKAALTQPLNALREWAANRPELQALCTQYGELAQAGTQRLLPGPTGERNTWTLLPRERVLCIADDEQDALTQLAAVLAVGSQVLWPDDALHRQLVKALPSAVSERIQLAKAENITAQPFDAVIFHGDSDQLRALCEAVAARDGTIVSVQGFARGESNILLERLYIERSLSVNTAAAGGNASLMTIG	3.5 ± 0.57 h	4.276 ± 0.022 h	5.93 ± 0.7 h	5.68 ± 0.72 h	2.81 ± 0.3 h	2.34 ± 0.047 h	2.08 ± 0.093 h	2.64 ± 0.23 h	3.8 ± 0.28 h	2.46 ± 0.32 h	4.246 ± 0.04 h	2.39 ± 0.14 h
MHCPFCFAVDTKVIDSRLVGEGSSVRRRRQCLVCNERFTTFEVAELVMPRVVKSNDVREPFNEEKLRSGMLRALEKRPVSSDDVEMAINHIKSQLRATGEREVPSKMIGNLVMEQLKKLDKVAYIRFASVYRSFEDIKEFGEEIARLED [P0A8D0]	4.6 ± 0.41 h	9.06 ± 0.4 h	6.05 ± 0.84 h	5.91 ± 0.41 h	–	4 ± 0.71 h	2.98 ± 1.4 h	4.15 ± 0.58 h	6.44 ± 0.094 h	4.677 ± 0.038 h	10.76 ± 0.082 h	4.362 ± 0.017 h
MHEIFNMLLAVFDRAALMLICLFFLIRIRLFRELLHKSAHSPKELLAVTAIFSLFALFSTWSGVPVEGSLVNVRIIAVMSGGILFGPWVGIITGVIAGIHRYLIDIGGVTAIPCFITSILAGCISGWINLKIPKAQRWRVGILGGMLCETLTMILVIVWAPTTALGIDIVSKIGIPMILGSVCIGFIVLLVQSVEGEKEASAARQAKLALDIANKTLPLFRHVNSESLRKVCEIIRDDIHADAVAITNTDHVLAYVGVGEHNYQNGDDFISPTTRQAMNYGKIIIKNNDEAHRTPEIHSMLVIPLWEKGVVTGTLKIYYCHAHQITSSLQEMAVGLSQIISTQLEVSRAEQLREMANKAELRALQSKINPHFLFNALNAISSSIRLNPDTARQLIFNLSRYLRYNIELKDDEQIDIKKELYQIKDYIAIEQARFGDKLTVIYDIDEEVNCCIPSLLIQPLVENAIVHGIQPCKGKGVVTISVAECGNRVRIAVRDTGHGIDPKVIERVEANEMPGNKIGLLNVHHRVKLLYGEGLHIRRLEPGTEIAFYIPNQRTPVASQATLLL [P0AA93]	–	–	6.72 h	6.87 ± 0.77 h	–	5.52 ± 0.31 h	2.84 ± 0.064 h	5.53 ± 0.67 h	–	–	14.8 ± 0.34 h	6.53 ± 0.56 h
